Laboratory results as given in patent US20120064078A1.

Target: intracellular Hsp90α (human) (human) (UniProt P07900)
Assay: cell-based or functional assay

- Thr90 phosphorylated Hsp90α (pT90-Hsp90α) level in MCF-7 cells on overexpression of human PP5 (fold of control): 0.55
- Thr90 phosphorylated Hsp90α (pT90-Hsp90α) level in MCF-7 cells on siRNA knock-down of human PP5 (fold of control): 1.58
Substance: human PP5 in MCF-7 cells (overexpressed from pcDNA3.1/Myc-His(-) or endogenous, knocked down by siRNA) (from UniProt P53041 2-499)
